Measurements reported in patent publication EP4596582A1 (Sichuan Kelun-Biotech Biopharmaceutical Co., Ltd., dated 2025).

Key:
[1] = target: T1, human B7-H3 on human tumor cells (MCF-7, HT29, NCI-N87, HCC1806, HCC827) (human, UniProt Q5ZPR3 29-534); experiment: cell-based or functional assay
T1 sequence (looked up): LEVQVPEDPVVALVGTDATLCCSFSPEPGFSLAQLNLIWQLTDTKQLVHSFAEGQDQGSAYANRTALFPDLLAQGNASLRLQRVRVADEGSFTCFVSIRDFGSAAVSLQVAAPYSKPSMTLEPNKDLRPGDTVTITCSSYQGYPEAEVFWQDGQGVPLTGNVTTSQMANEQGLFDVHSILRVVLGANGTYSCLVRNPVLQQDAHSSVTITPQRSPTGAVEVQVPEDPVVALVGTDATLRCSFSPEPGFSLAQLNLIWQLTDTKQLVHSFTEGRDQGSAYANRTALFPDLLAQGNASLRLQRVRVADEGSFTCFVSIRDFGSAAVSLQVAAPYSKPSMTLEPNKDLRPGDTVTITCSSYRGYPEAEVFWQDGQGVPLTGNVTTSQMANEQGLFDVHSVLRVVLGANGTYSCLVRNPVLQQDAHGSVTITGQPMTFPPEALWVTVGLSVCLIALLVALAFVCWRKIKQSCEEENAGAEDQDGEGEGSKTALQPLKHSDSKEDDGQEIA

[2] = target: T1, human B7-H3 on human tumor cells …; experiment: flow cytometry on HCC827 cells
[3] = target: T1, human B7-H3 on human tumor cells …; experiment: flow cytometry on HCC1806 cells
[4] = target: T1, human B7-H3 on human tumor cells …; experiment: flow cytometry on NCI-N87 cells
[5] = target: T2, human B7-H3-4Ig-His protein (human, UniProt Q5ZPR3 29-466); experiment: ELISA, antigen coated at 1 ug/ml
T2 construct: extracellular domain; Made in HEK293-EBNA cells
T2 sequence: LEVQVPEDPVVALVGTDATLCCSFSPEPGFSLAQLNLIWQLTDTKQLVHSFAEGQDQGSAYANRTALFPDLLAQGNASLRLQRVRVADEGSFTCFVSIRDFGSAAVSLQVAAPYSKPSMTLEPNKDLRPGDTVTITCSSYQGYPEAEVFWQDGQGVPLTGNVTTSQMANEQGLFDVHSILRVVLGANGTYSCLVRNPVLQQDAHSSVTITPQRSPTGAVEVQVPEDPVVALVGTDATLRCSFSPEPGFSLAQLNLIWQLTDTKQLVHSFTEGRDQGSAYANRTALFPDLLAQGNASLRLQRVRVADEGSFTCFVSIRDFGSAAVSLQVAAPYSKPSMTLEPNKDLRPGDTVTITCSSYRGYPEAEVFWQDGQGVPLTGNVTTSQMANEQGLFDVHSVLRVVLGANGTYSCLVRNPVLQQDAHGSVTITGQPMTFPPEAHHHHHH

[6] = target: T3, monkey B7-H3 on CHO-S cells (CHO-S-monkey B7-H3) (monkey); experiment: flow cytometry on CHO-S-monkey B7-H3 cells
T3 construct: whole, on cells; also called monkey B7-H3-overexpressed cells

[7] = target: T4, human B7-H3-2Ig on CHO-S cells (CHO-S-human B7-H3-2Ig) (human, UniProt Q5ZPR3 29-316); experiment: flow cytometry on CHO-S-human B7-H3-2Ig cells
T4 construct: also called CHO-S-B7-H3-2Ig
T4 sequence: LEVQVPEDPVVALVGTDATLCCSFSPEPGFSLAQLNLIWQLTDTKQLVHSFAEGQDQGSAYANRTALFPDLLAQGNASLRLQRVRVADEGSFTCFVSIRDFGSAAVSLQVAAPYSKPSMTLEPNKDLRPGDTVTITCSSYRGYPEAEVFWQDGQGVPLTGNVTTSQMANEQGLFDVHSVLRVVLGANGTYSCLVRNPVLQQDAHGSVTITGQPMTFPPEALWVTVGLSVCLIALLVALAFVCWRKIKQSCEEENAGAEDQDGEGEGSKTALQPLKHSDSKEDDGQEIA

[8] = target: T5, human B7-H3-4Ig on CHO-S cells (CHO-S-human B7-H3-4Ig) (human, UniProt Q5ZPR3 29-534); experiment: flow cytometry on CHO-S-human B7-H3-4Ig cells
T5 construct: whole, on cells; also called CHO-S-B7-H3-4Ig
T5 sequence (looked up): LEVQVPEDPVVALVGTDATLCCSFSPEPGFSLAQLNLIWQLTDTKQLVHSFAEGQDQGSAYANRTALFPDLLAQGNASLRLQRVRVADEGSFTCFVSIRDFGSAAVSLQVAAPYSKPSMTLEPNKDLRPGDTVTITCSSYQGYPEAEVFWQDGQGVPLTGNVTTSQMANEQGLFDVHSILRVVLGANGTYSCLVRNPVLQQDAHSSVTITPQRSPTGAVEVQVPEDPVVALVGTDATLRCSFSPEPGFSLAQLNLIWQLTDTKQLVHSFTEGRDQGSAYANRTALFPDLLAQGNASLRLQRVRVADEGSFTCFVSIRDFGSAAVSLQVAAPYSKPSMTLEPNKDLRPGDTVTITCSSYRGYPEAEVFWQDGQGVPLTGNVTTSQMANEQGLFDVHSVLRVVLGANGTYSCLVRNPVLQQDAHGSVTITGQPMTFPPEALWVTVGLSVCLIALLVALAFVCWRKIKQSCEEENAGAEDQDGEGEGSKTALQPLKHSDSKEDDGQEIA

[9] = target: T6, rat B7-H3-2Ig-His protein (rat, UniProt Q7TPB4 29-248); experiment: BLI (ForteBio), antibody captured on Protein A sensor, antigen in solution
T6 construct: extracellular domain; also called rat B7-H3-his
T6 sequence: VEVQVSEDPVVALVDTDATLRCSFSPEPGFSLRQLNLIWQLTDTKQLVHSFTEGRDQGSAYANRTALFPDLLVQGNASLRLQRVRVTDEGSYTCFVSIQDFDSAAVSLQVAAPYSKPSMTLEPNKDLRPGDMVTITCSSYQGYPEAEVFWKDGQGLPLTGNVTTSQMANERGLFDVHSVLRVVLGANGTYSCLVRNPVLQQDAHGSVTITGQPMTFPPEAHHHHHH

[10] = target: T7, human B7-H1-mFc (human, UniProt Q9NZQ7 19-238); experiment: ELISA, antigen coated at 1 ug/ml, 2#8890-biotin detected with streptavidin-peroxidase
T7 construct: Self-constructed; not shown: mFc
T7 sequence (Q9NZQ7 19-238): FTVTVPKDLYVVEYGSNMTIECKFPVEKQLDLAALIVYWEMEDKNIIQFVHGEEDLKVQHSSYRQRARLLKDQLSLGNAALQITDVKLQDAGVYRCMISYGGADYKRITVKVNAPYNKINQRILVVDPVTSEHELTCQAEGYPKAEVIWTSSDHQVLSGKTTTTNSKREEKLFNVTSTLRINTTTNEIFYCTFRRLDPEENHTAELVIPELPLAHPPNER

[11] = target: T8, human B7-H4-hFc (human, UniProt Q7Z7D3 25-259); experiment: as above
T8 construct: Bought protein; not shown: hFc
T8 sequence (looked up): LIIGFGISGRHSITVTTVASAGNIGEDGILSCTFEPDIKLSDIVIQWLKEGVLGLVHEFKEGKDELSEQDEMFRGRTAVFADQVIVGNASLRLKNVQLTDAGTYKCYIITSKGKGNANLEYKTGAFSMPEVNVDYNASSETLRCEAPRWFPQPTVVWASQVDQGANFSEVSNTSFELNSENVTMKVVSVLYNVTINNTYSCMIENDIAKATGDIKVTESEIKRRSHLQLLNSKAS

B1: anti-human-B7-H3 human antibody 2#8890 (antibody, human IgG1, kappa, V domains shown)
VH: QVQLQESGPGLVQPSGTLSLTCAVSGGSDSSTNWWTWVRQSPGQGLEWIGEISPIGFTSYSPSLRSRVTISVDKSKTQFSLKLSSVTAADTAVYYCARDRLYFAFWGQGTLVTVSS
VL: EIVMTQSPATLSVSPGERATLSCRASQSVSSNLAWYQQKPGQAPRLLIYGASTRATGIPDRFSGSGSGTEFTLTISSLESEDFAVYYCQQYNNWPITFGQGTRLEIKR
Endocytosis EC50 on HCC827 cells (PHrodo, flow cytometry) [1]: 10.2 ng/mL
Endocytosis EC50 on HCC1806 cells (PHrodo, flow cytometry) [1]: 20.6 ng/mL
Endocytosis EC50 on NCI-N87 cells (PHrodo, flow cytometry) [1]: 12.2 ng/mL
EC50 [2]: 0.0123 µg/mL
EC50 [3]: 9.67 ng/mL
EC50 [4]: 5.77 ng/mL
EC50 [5]: 1.93 ng/mL
EC50 [6]: 0.0649 µg/mL
EC50 [7]: 0.0684 µg/mL
EC50 [8]: 0.115 µg/mL
binding result [9]: no binding (tested: 200 nM highest concentration)
binding result [10]: no binding (tested: 10 ug/ml highest concentration)
binding result [11]: no binding (tested: 10 ug/ml highest concentration)
